Columns and labels:
[1] = test system: BS1-driven reporter; experiment: Transactivation of BS1-driven luciferase reporter in 293T cells; type: cell-based, human
From the text: An XbaI-EcoRV fragment containing the entire DMP1 coding sequence is subcloned by blunt end ligation into a SpeI-XbaI fragment of the Rc/RSV vector (Invitrogen, La Jolla Calif.) to enable DMP1 expression in mammalian cells. 6×concatamerized BS1, 8×concatamerized, BS2, or 7×concatamerized M3 oligonucleotides (FIG. 5B) are inserted into the XhoI-SmaI sites of pGL2 (Pfornega) 5′ to a minimal simian virus 40 (SV40) early promoter driving firefly luciferase gene expression. The latter “reporter” plasmid (1 μg) together with increasing amounts of pRc/RSV-DMP1 expression plasmid compensated by decreasing quantities of control pRc/RSV DNA (total of both=2.5 μg) were transfected into 293T cells (1.5×10^6 cells per 60 mm diameter culture dish) by calcium phosphate precipitation (7). Two days later, cells were harvested, washed three times with PBS, and lysed in 1 ml of 25 mM glycylglycine (Sigma), pH 7.8, 15 mM MgSO4, 4 mM EDTA, 1 mM DTT, and 1% Triton X-100. After clearing by centrifugation, 50 μl aliquots were assayed diluted to 350 μl using 15 mM potassium phosphate buffer, pH 7.8, containing 15 mM MgSO4, 4 mM EGTA, 2 mM ATP, 1 mM DTT, and 67 uM luciferin (Sigma). Total light emission was measured for duplicate samples during the initial 20 seconds after luciferin injection with an Optocomp I luminometer (MGM Instruments, Hamden Conn.). […]

[2] = molecular target: T1, recombinant DMP1 (Mus musculus, UniProt Q8CE22); experiment: EMSA competition with Sf9 lysates producing recombinant DMP1; type: binding; settings: excess unlabeled oligonucleotide
T1 construct: made in house; host or cells: Sf9 insect cells, pAcYM1 baculovirus vector; used as crude lysate (~4 ng DMP1 per reaction)
T1 sequence (Q8CE22 1-761): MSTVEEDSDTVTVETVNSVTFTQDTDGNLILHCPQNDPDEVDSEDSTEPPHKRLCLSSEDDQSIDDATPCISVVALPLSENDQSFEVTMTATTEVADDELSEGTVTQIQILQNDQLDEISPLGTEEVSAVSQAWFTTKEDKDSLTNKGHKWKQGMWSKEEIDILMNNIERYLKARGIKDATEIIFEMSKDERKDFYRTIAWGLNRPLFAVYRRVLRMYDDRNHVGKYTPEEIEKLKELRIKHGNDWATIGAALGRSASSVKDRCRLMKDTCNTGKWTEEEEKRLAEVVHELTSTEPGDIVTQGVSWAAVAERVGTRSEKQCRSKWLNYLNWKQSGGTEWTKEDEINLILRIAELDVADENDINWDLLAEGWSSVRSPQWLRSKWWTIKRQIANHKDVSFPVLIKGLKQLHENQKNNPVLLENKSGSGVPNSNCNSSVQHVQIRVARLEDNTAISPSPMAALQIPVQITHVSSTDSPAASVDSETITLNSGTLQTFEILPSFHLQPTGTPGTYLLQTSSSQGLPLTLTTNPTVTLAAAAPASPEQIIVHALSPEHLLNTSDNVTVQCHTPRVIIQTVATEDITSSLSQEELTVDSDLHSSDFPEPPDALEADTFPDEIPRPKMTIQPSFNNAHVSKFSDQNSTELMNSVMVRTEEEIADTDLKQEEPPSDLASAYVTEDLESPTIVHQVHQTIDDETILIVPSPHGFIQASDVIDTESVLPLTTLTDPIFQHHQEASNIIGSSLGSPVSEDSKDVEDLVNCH
Experimental: Double-stranded oligonucleotides containing potential DMP1 binding sites (BS1 and BS2) and mutated versions (M1-M4) (FIG. 5B) are end-labeled with ^32P using the Klenow fragment of DNA polymerase and α-^32P-dATP (6000 Ci/mmol; Dupont NEN) (8). Nuclear extracts from mouse NIH-3T3 or CTLL cells are prepared with buffer containing 0.4 M NaCl (2). Mammalian cell extracts (15 μg protein) or Sf9 lysates (corresponding to 5×10^2 infected cells) containing ˜4 ng recombinant DMP1 are mixed with 3 ng of ^32P-labeled probe (1×10^5 cpm) in 15 ul Binding buffer containing 2.5 μg of poly(dI-dC) and 2.5 μg BSA and incubated at 4° C. for 30 minutes. For competition experiments, the indicated amounts of unlabeled oligonucleotides are added to the reactions before addition of the labeled probe. In some experiments, a bacterially produced GST-Ets2 fusion protein containing the complete Ets2 DNA-binding domain (10) is used in place of Sf9 extracts containing recombinant DMP1. Protein-DNA complexes are separated on nondenaturing 4% polyacrylamide gels as described (8). Where indicated, antiserum to DMP1 together with 2.5 μg salmon testis DNA (Sigma; used to reduce nonspecific DNA binding activity caused by serum addition) is preincubated with extracts for 30 minutes at 4° C. prior to initiation of binding reactions. Immune complexes are either removed by adsorption to protein A-Sepharose beads (immunodepletion experiments) or are allowed to remain (“supershift” experiments).
Using electrophoretic mobility shift assays (EMSA) performed after mixing a titrated excess (3 ng) of ^32P-end labeled BS1 probe with Sf9 lysates producing DMP1 (˜4 ng recombinant protein per reaction), a BS1-containing protein complex is detected that was competed with an excess of unlabeled BS1 oligonucleotide but not with mutant oligonucleotides M1 and M2 (FIG. 6A). […] More subtle mutations within this region may be tolerated, because high concentrations of M4 competed for BS1 binding to both Ets2 and DMP1 in subsequent studies (FIG. 5B and see below). DMP1 also binds a BS2 probe, and the binding is competed by excess BS2 or BS1 (FIG. 6B). In agreement with the site selection frequencies (FIG. 5A), binding of ^32P-BS1 under equivalent conditions was competed more efficiently by excess unlabeled BS1 than by BS2 (FIG. 6B). […] In agreement, Ets2 binding to BS1 could be competed with excess unlabeled BS1 and M3, but not by BS2 (FIG. 6C). Therefore, although both DMP1 and Ets2 can each bind to BS1 sequences, their exclusive interactions with BS2 and M3, respectively, help to distinguish DMP1 and Ets binding activities (summarized in FIG. 5B).

Row | competition for 32P-BS1 probe binding to DMP1 [2] | competition for BS2 probe binding to DMP1 [2] | Substance | activation of the BS1-driven reporter [1] [fold]
1 | – | – | DMP1: murine cyclin D-associated myb-like transcription factor, 761 amino acids, SEQ ID NO:1 | 7
2 | does not compete | does not compete | M3: DMP1 deletion mutant (NcoI), amino acids 1-458 of SEQ ID NO:1 | –
